In paper PMC3922351 (2007):
One block for each molecule: values may come before it.

What was measured:
FGFR1 (Homo sapiens) [1] = target: FGFR1 (Homo sapiens) (UniProt P11362); assay: surface plasmon resonance; settings: cited from earlier work
FGFR1 (Homo sapiens) [2] = target: FGFR1 (Homo sapiens) (UniProt P11362); assay: surface plasmon resonance; settings: cited from earlier work; remark: listed apart in the source
FGF2 (Homo sapiens) [3] = target: FGF2 (Homo sapiens) (UniProt P09038); assay: SPR; settings: cited from earlier work
Sequence of FGF2 (Homo sapiens) (P09038 143-288): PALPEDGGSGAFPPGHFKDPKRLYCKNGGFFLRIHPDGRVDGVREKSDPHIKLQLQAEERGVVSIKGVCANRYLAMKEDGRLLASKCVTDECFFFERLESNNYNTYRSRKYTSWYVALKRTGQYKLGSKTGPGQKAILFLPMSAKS

FGF2 (Homo sapiens) [4] = target: FGF2 (Homo sapiens) (UniProt P09038); assay: SPR; settings: cited from earlier work; remark: listed apart in the source
[5] = target: low density lipoprotein receptor-related protein (LRP) (UniProt Q07954)
Sequence of low density lipoprotein receptor-related protein (LRP) (Q07954 20-4544): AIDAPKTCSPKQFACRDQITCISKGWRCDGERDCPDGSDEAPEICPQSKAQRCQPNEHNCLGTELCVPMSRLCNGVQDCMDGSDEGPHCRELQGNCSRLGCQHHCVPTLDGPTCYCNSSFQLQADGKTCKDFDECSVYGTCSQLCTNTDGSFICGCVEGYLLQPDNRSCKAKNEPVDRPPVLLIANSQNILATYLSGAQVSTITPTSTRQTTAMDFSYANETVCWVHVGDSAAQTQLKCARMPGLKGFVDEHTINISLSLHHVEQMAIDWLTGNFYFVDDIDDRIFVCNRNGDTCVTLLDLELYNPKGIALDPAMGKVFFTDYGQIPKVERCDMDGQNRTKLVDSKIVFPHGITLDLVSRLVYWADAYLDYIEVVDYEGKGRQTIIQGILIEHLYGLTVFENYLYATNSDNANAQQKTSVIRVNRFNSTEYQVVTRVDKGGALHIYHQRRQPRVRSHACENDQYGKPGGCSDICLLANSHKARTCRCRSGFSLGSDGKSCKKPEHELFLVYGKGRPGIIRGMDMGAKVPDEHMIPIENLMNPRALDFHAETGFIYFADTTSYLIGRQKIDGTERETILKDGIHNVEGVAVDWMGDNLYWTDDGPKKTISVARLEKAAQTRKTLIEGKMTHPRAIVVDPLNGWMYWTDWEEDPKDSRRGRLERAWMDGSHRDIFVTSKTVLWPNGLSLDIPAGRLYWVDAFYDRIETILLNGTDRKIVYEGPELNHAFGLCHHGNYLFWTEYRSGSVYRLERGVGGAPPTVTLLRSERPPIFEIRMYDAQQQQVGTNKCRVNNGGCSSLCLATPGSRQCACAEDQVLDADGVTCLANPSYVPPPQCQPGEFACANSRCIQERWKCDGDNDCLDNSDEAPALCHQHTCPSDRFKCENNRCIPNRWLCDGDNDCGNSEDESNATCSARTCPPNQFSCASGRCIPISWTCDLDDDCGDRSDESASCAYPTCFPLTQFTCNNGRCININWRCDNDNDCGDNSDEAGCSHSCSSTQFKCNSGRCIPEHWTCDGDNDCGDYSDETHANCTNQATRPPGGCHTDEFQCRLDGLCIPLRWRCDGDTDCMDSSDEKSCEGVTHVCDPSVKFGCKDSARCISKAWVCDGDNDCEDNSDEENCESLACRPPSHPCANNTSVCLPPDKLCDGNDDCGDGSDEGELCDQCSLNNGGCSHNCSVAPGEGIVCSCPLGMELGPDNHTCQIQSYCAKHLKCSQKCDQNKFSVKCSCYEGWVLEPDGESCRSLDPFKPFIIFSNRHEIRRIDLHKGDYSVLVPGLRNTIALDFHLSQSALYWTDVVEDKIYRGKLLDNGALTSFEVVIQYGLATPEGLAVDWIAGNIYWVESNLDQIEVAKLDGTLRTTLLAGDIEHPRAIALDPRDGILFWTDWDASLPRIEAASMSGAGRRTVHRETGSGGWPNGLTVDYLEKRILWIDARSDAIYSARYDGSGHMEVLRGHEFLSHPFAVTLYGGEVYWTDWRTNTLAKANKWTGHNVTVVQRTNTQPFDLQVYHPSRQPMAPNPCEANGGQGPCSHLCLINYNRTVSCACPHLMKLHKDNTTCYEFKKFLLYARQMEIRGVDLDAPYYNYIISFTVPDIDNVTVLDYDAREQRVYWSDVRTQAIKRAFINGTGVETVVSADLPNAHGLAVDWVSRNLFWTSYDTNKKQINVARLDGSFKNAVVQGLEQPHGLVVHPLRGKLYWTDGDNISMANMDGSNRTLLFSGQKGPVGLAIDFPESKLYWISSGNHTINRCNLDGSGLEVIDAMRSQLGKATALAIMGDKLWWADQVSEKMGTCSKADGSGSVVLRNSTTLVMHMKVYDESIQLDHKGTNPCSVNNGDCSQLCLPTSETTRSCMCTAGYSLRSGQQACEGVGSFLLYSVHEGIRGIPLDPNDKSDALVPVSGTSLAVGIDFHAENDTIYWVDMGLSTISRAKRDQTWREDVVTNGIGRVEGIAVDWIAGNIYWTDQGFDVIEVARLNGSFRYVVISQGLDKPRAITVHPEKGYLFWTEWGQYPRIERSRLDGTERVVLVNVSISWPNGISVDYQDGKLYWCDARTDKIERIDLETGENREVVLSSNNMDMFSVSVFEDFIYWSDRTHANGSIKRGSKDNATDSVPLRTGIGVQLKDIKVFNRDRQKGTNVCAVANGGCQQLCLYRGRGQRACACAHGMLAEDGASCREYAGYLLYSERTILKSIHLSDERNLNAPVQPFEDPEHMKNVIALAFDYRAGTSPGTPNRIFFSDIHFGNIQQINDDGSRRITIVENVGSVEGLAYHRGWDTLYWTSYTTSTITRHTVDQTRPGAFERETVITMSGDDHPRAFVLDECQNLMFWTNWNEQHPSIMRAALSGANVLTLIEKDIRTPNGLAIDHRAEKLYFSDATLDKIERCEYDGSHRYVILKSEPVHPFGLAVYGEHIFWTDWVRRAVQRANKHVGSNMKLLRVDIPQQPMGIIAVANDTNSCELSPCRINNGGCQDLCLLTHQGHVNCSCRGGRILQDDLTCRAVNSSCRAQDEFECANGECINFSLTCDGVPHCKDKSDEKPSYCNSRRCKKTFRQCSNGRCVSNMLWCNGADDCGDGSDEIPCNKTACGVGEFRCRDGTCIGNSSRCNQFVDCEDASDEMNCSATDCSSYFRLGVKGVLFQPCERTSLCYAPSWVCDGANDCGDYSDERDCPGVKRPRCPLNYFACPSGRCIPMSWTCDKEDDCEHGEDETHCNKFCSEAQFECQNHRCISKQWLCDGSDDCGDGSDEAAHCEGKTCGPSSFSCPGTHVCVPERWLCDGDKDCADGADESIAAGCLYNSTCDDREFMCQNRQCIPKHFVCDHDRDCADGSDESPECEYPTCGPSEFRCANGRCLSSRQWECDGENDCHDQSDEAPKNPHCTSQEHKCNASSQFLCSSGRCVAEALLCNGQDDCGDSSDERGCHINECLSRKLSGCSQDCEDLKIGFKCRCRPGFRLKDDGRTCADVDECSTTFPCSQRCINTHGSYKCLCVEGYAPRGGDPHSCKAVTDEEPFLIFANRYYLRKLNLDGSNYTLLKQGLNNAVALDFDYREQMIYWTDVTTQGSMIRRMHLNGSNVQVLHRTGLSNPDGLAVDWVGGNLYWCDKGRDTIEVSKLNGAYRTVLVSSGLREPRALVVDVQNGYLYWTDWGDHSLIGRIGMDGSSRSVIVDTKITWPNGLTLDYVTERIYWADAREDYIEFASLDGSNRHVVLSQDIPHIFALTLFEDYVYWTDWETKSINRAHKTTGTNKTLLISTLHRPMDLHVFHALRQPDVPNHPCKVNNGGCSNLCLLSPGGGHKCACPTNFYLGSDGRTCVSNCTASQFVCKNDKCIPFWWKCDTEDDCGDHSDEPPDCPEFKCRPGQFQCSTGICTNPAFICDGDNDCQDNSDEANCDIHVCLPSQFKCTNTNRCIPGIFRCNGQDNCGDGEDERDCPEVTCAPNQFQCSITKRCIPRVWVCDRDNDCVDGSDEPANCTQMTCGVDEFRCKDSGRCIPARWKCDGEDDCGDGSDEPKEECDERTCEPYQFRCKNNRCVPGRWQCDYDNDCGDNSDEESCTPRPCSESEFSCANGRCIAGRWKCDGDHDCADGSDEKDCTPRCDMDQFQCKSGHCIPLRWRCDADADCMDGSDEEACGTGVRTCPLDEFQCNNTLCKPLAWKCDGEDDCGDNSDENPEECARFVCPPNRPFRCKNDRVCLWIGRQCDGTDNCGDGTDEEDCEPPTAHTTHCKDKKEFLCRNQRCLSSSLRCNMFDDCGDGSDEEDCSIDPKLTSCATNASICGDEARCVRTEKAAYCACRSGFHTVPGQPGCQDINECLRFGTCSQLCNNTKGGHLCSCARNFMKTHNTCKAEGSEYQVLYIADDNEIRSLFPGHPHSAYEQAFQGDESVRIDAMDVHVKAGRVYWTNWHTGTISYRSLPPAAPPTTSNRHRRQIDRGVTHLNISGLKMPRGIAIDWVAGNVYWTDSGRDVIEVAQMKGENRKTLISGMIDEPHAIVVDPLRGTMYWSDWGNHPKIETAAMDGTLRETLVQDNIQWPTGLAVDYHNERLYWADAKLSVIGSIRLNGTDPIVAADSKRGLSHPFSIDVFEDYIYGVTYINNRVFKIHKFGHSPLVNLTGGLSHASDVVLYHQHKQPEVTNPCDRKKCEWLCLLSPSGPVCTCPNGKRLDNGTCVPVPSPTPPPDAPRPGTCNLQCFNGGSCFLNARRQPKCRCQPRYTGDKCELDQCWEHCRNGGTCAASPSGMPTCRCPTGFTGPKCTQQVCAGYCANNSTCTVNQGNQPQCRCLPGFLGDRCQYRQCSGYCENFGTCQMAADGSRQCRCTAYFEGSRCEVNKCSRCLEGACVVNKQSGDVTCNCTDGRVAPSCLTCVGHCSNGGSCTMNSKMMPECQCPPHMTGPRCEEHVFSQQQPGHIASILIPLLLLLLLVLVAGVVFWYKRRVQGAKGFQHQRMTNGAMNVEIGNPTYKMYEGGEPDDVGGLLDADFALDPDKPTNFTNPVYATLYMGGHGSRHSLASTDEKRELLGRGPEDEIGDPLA

Molecule: FGF2 (from UniProt P09038)
Kd (FGFR1 (Homo sapiens) [1]): 2.7 nM | Kd (FGFR1 (Homo sapiens) [2]): 62 nM

Molecule: FGFR1 (from UniProt P11362)
Kd (FGF2 (Homo sapiens) [3]): 2.7 nM | Kd (FGF2 (Homo sapiens) [4]): 62 nM

Second part, the molecule after the results:

Kd [5]: ~1.06 nM
B1: pro-heparanase-1 (protein)
chain: QDVVDLDFFTQEPLHLVSPSFLSVTIDANLATDPRFLILLGSPKLRTLARGLSPAYLRFGGTKTDFLIFDPKKESTFEERSYWQSQVNQDICKYGSIPPDVEEKLRLEWPYQEQLLLREHYQKKFKNSTYSRSSVDVLYTFANCSGLDLIFGLNALLRTADLQWNSSNAQLLLDYCSSKGYNISWELGNEPNSFLKKADIFINGSQLGEDFIQLHKLLRKSTFKNAKLYGPDVGQPRRKTAKMLKSFLKAGGEVIDSVTWHHYYLNGRTATKEDFLNPDVLDIFISSVQKVFQVVESTRPGKKVWLGETSSAYGGGAPLLSDTFAAGFMWLDKLGLSARMGIEVVMRQVFFGAGNYHLVDENFDPLPDYWLSLLFKKLVGTKVLMASVQGSKRRKLRVYLHCTNTDNPRYKEGDLTLYAINLHNVTKYLRLPYPFSNKQVDKYLLRPLGPHGLLSKSVQLNGLTLKMVDDQTLPPLMEKPLRPGSSLGLPAFSYSFFVIRNAKVAACI

Kd [5]: ~0.05 nM
B2: pro-heparanase-1 (protein)
chain: QDVVDLDFFTQEPLHLVSPSFLSVTIDANLATDPRFLILLGSPKLRTLARGLSPAYLRFGGTKTDFLIFDPKKESTFEERSYWQSQVNQDICKYGSIPPDVEEKLRLEWPYQEQLLLREHYQKKFKNSTYSRSSVDVLYTFANCSGLDLIFGLNALLRTADLQWNSSNAQLLLDYCSSKGYNISWELGNEPNSFLKKADIFINGSQLGEDFIQLHKLLRKSTFKNAKLYGPDVGQPRRKTAKMLKSFLKAGGEVIDSVTWHHYYLNGRTATKEDFLNPDVLDIFISSVQKVFQVVESTRPGKKVWLGETSSAYGGGAPLLSDTFAAGFMWLDKLGLSARMGIEVVMRQVFFGAGNYHLVDENFDPLPDYWLSLLFKKLVGTKVLMASVQGSKRRKLRVYLHCTNTDNPRYKEGDLTLYAINLHNVTKYLRLPYPFSNKQVDKYLLRPLGPHGLLSKSVQLNGLTLKMVDDQTLPPLMEKPLRPGSSLGLPAFSYSFFVIRNAKVAACI
modifications: complex of LRP with heparan sulphate proteoglycans (HSPG)
